Values belong to the binder of their own block, whether it stands above or below them. Bridges are numbered along the chain shown (N, C = ends). [ ]: non-standard residue; d: D form. The star is where a group is joined. Pen = CC(C)(S)[C@H](N)C(=O)O; Thz = O=C(O)[C@@H]1CSCN1; Propionyl = CCC(=O)*
Biological target: T1, recombinant mouse LDLR (His-tagged), extracellular domain (mouse, UniProt P35951 22-790)
T1 construct: mouse low-density lipoprotein receptor, extracellular domain; immobilised on a NiHC sensor chip; in the functional rows it stands for the endogenous LDLR of the mouse; also called mLDLR; murine LDLR; source: bought: Sino Biological
Assay: SPR; hLDLR or mLDLR (His-tagged) immobilised on a NiHC sensor chip at 35-60 fmol/mm^2; Biacore T200, 25°C; 50 mM HEPES-NaOH pH7.4, 150 mM NaCl, 0.005% Tween-20, 50μM EDTA; single-cycle kinetics; 1:1 Langmuir model
Conditions: both partners purified

T1 sequence (P35951 22-790): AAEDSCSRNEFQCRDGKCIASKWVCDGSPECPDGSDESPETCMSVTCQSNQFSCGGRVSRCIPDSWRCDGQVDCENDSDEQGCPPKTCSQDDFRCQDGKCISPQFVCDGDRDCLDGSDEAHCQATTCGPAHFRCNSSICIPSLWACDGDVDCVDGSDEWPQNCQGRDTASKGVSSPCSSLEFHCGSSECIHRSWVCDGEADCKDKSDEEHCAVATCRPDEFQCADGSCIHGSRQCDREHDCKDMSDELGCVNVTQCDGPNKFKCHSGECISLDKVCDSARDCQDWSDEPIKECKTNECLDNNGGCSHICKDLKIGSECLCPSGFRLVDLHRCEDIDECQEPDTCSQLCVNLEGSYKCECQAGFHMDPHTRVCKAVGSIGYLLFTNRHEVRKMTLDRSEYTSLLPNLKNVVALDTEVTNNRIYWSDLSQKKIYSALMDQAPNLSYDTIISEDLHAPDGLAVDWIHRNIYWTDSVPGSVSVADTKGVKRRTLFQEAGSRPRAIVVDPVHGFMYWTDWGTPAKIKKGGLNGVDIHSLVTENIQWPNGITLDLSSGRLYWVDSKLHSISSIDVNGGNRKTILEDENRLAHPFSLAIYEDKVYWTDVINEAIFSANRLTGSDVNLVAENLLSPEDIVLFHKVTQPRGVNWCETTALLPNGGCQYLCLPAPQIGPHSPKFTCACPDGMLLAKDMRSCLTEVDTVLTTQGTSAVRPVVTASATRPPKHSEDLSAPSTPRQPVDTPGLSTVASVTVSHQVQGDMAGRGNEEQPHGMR

Kd: 36 ± 1 nM
B1: VH4127 synthetic cyclic peptide (peptide)
chain: Propionyl-[dC]M[Thz]RLRG[Pen]-NH2
modifications: disulfide 1-8

Kd: 233 ± 24 nM
B2: VH445 synthetic cyclic peptide (peptide)
peptide: Propionyl-[dC]MPRLRGC-NH2
modifications: disulfide 1-8
notes: printed cMPRLRGC, lower case c = (D)-Cys; also called VH0445; source: synthetic peptide

Kd: 280 ± 33 nM
B3: VH434 synthetic cyclic peptide (peptide)
peptide: Propionyl-CMPRLRGC-NH2
modifications: disulfide 1-8 (inferred)
notes: 8-residue truncation of VH411; source: synthetic peptide
